Laboratory results reported in patent US20240174763A1 (NOVOPROTEIN SCIENTIFIC, published 2024).
Numbering of substitutions follows the chain as printed. Like-named read-outs stand apart in the source and are kept apart here.

T1: human CD73 on SK-OV-3 cells (human ovarian adenocarcinoma cells) (human, UniProt P21589 27-549)
T1 construct: whole, on cells; also called human CD73 positive cells
T1 sequence (looked up): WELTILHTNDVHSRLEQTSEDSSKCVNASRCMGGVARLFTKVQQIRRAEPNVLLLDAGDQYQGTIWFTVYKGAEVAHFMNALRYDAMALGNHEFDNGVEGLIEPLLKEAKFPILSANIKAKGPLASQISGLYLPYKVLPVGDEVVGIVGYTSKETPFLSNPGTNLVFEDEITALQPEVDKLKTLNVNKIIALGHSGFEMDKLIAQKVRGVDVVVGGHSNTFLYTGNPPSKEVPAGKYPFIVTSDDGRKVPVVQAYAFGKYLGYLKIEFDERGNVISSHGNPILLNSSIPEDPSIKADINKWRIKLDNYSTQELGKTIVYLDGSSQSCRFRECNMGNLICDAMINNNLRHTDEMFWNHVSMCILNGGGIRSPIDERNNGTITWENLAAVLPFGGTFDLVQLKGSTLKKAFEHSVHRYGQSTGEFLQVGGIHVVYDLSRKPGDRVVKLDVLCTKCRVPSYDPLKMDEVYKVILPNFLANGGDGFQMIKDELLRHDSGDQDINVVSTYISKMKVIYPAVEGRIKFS

T2: recombinant human CD73 protein (human, UniProt P21589 27-547, limits assumed)
T2 construct: Bought recombinant protein; the assays only say recombinant human CD73; also called rhCD73; recombinant hCD73 protein
T2 sequence (looked up): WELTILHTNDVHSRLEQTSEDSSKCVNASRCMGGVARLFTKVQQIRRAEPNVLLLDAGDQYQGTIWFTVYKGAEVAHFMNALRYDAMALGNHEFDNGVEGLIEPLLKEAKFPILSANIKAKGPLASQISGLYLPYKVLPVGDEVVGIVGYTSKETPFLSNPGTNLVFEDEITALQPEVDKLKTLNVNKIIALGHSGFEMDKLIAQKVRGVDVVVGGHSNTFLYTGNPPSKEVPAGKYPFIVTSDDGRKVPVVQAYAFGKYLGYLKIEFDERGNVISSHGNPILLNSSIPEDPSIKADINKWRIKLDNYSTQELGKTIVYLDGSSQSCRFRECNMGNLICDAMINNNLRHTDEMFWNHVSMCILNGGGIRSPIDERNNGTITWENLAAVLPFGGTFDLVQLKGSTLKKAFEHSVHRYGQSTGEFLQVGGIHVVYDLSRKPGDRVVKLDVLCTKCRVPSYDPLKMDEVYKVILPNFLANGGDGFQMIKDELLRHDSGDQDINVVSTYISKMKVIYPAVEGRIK

T3: recombinant monkey CD73 protein (monkey, UniProt A0A2K5V5U7 27-549)
T3 construct: Monkey species not further named for the recombinant protein (the cell line is called cynoCD73)
T3 sequence: T1 sequence (looked up) with M199T, T350A, V466I

T4: monkey CD73 on CHOK1-cynoCD73 cells (monkey, UniProt A0A2K5V5U7 27-549, GPI anchor at the C-terminus of the mature chain (paragraph 3 says CD73 is GPI-anchored). The propeptide 550-574 is removed.)
T4 construct: also called CHOK1-cyno73 cells; monkey CD73 positive cells
T4 sequence: T1 sequence (looked up) with M199T, T350A, V466I

B1: humanized CQ137 monoclonal antibody (137-3) (antibody, V domains shown)
VH: QVQLVQSGAEVKKPGSSVKVSCKASGYSFTGYYIHWVRQAPGQGLEWMGRINPYNGATTYNQNFKDRVTITVDKSTSTAYMELSSLRSEDTAVYYCARFHYGAPDYWGQGTLVTVSS
VL: DIQMTQSPSSLSASVGDRVTITCKASQDINTYLTWYQQKPGKAPKTLIYRANILVDGVPSRFSGSGSGTDFTLTISSLQPEDFATYYCLQYDEFPLTFGGGTKVEIKR
B2: humanized CQ137 monoclonal antibody (137-9) (antibody, V domains shown)
VH: B1 VH with Y106L
VL: B1 VL with E93A
B3: humanized CQ137 monoclonal antibody (137-1) (antibody, V domains shown)
VH: B1 VH with S16A, S28T, I70M, S84R, E89D
VL: B1 VL with Y36F, T69Q, F71Y
B4: humanized CQ137 monoclonal antibody (137-4) (antibody, V domains shown)
VH: B1 VH with P104V
VL: B1 VL with D92E
B5: humanized CQ137 monoclonal antibody (137-7) (antibody, V domains shown)
VH: B1 VH with D105N
VL: B1 VL with E93D
B6: humanized CQ137 monoclonal antibody (137-6) (antibody, V domains shown)
VH: B1 VH with D105E
VL: B1 VL with D92A
B7: humanized CQ137 monoclonal antibody (137-5) (antibody, V domains shown)
VH: B1 VH with P104A
VL: B1 VL with D92N
B8: humanized CQ137 monoclonal antibody (137-8) (antibody, V domains shown)
VH: B1 VH with Y106F
VL: B1 VL with E93Q
B9: humanized CQ137 monoclonal antibody (137-2) (antibody, V domains shown)
VH: B1 VH with S16A, I70M, S84R, E89D
VL: B1 VL with Y36F, T46S

Legend:
[1] = biological target: human CD73 on SK-OV-3 cells (human ovarian adenocarcinoma cells) (human) (UniProt P21589); assay: flow cytometry on SK-OV-3 cells, anti-hFc-APC
[2] = biological target: human CD73 on SK-OV-3 cells (human ovarian adenocarcinoma cells) (human) (UniProt P21589); assay: flow cytometry on SK-OV-3 cells, anti-hFc-APC; remark: listed apart in the source
[3] = biological target: monkey CD73 on CHOK1-cynoCD73 cells (monkey); assay: flow cytometry on CHOK1-cynoCD73 cells
[4] = biological target: human CD73 on SK-OV-3 cells (human ovarian adenocarcinoma cells) (human) (UniProt P21589); assay: flow cytometry on SK-OV-3 cells, anti-hFc-APC; remark: listed apart in the source
[5] = biological target: human CD73 on SK-OV-3 cells (human ovarian adenocarcinoma cells) (human) (UniProt P21589); assay: flow cytometry on SK-OV-3 cells
[6] = biological target: human CD73 on SK-OV-3 cells (human ovarian adenocarcinoma cells) (human) (UniProt P21589); assay: flow cytometry on SK-OV-3 cells; remark: listed apart in the source
[7] = biological target: human CD73 on SK-OV-3 cells (human ovarian adenocarcinoma cells) (human) (UniProt P21589); assay: flow cytometry on SK-OV-3 cells; remark: listed apart in the source
[8] = biological target: T1, human CD73 on SK-OV-3 cells (human …); assay: flow cytometry on SK-OV-3 cells
[9] = biological target: T2, recombinant human CD73 protein; assay: ELISA, plate coated with recombinant human CD73 at 3 µg/mL
[10] = biological target: T2, recombinant human CD73 protein; assay: ELISA, recombinant human CD73 coated at 3 ug/mL
[11] = biological target: T3, recombinant monkey CD73 protein; assay: ELISA, plate coated with recombinant monkey CD73 at 3 µg/mL
Excerpt: (§1) The combination of antibody and the recombinant monkey CD73 was detected by an ELISA method, and the result is shown in FIG. 8B.

[12] = biological target: T3, recombinant monkey CD73 protein; assay: ELISA, recombinant monkey CD73 coated at 3 ug/mL
Excerpt: as §1

[13] = biological target: T4, monkey CD73 on CHOK1-cynoCD73 cells; assay: flow cytometry on CHOK1-cynoCD73 cells
Excerpt: The full length of monkey CD73 was constructed on a eukaryotic expression vector containing NEO resistance, CHO-K1 cells were transfected, G418 was used for screening to obtain a CHOK1-cynoCD73 cell strain.

[14] = biological target: T1, human CD73 on SK-OV-3 cells (human …); assay: flow cytometry on SK-OV-3 cells, anti-hFc-APC
[15] = biological target: T1, human CD73 on SK-OV-3 cells (human …); assay: flow cytometry on SK-OV-3 cells; remark: listed apart in the source
[16] = biological target: T4, monkey CD73 on CHOK1-cynoCD73 cells; assay: flow cytometry on CHOK1-cynoCD73 cells; remark: listed apart in the source
[17] = biological target: T4, monkey CD73 on CHOK1-cynoCD73 cells; assay: flow cytometry on CHOK1-cynoCD73 cells; remark: listed apart in the source
[18] = biological target: T1, human CD73 on SK-OV-3 cells (human …); assay: flow cytometry on SK-OV-3 cells, anti-hFc-APC; remark: listed apart in the source
[19] = biological target: T2, recombinant human CD73 protein; assay: ELISA, recombinant human CD73 coated at 3 ug/mL; remark: listed apart in the source
[20] = biological target: T2, recombinant human CD73 protein; assay: ELISA, recombinant human CD73
[21] = biological target: T3, recombinant monkey CD73 protein; assay: ELISA, recombinant monkey CD73
[22] = biological target: T3, recombinant monkey CD73 protein; assay: ELISA, recombinant monkey CD73 coated at 3 ug/mL; remark: listed apart in the source

| Molecule | EC50 [8] [µg/mL] | EC50 [9] [µg/mL] | EC50 (read off the curve) [10] [µg/mL] | EC50 [11] [µg/mL] | EC50 [13] [µg/mL] | EC50 (read off the curve) [13] [µg/mL] | EC50 (read off the curve) [14] [µg/mL] | EC50 [15] [µg/mL] | EC50 (read off the curve) [16] [µg/mL] | EC50 [17] [µg/mL] | EC50 (read off the curve) [18] [µg/mL] | EC50 (read off the curve) [19] [µg/mL] | EC50 [20] [µg/mL] | EC50 [21] [µg/mL] | other results |
| --- | --- | --- | --- | --- | --- | --- | --- | --- | --- | --- | --- | --- | --- | --- | --- |
| MEDI-9447 of AstraZeneca(AZ)/Medimmune (antibody) |  |  |  |  |  |  |  |  |  |  |  |  |  |  | EC50 (read off the curve) [1]: 0.1 µg/mL; EC50 (read off the curve) [2]: 0.03 µg/mL; EC50 [3]: 0.00412 µg/mL; EC50 (read off the curve) [3]: 0.002 µg/mL; EC50 (read off the curve) [4]: 0.02 µg/mL; EC50 [5]: 0.00963 µg/mL; EC50 [6]: 0.0336 µg/mL; EC50 [7]: 23.5 µg/mL |
| B1 | 7.03 | 0.331 | ~0.3 | 0.202 | 0.0403 | ~0.04 | ~0.003 |  |  |  |  |  |  |  | EC50 (read off the curve) [12]: ~0.2 µg/mL |
| B2 |  |  |  |  |  |  |  | 0.0331 | ~0.02 | 0.0193 | ~0.03 | ~0.4 | 0.446 | 3.76 |  |
| B3 | 2.13 | 0.258 | ~0.3 | 3.76 | 0.0862 | ~0.09 | ~0.002 |  |  |  |  |  |  |  |  |
| B4 |  |  |  |  |  |  |  | 0.00307 | ~0.008 | 0.00831 | ~0.003 | ~0.3 | 0.262 | 0.352 | EC50 (read off the curve) [22]: ~0.4 µg/mL |
| B5 |  |  |  |  |  |  |  | 0.0301 | ~0.02 | 0.0239 |  |  | 0.5 | 6.57 |  |
| B6 |  |  |  |  |  |  |  | 0.00371 | ~0.008 | 0.00769 | ~0.004 | ~0.3 | 0.267 | 0.315 | EC50 (read off the curve) [22]: ~0.3 µg/mL |
| B7 |  |  |  |  |  |  |  | 0.0234 | ~0.02 | 0.0154 | ~0.02 |  | 0.387 | 0.734 |  |
| B8 |  |  |  |  |  |  |  | 0.00487 | ~0.008 | 0.00782 | ~0.005 | ~0.3 | 0.312 | 3.76 |  |
| B9 | 3.26 | 0.275 | ~0.3 | 0.313 | 0.0233 | ~0.02 | ~0.007 |  |  |  |  |  |  |  | EC50 (read off the curve) [12]: ~0.3 µg/mL |
